Assay results: paper doi:10.1101/2024.02.22.581535

Target: Bio-His-FIKK13 (P. falciparum)
Assay: SPR

YPLRFLSKYHCG [FIKK13_4]
Kd: 17 nM
